According to article PMC2786004 (Biochemistry, 2009):

Biological target: the molecule itself
Experiment: crystal structure

B1: Bacillus halodurans tRNA isopentenyltransferase MiaA (BH2366), full length (enzyme, UniProt Q9KAC3 1-314, looked up)
chain: MKEKLVAIVGPTAVGKTKTSVMLAKRLNGEVISGDSMQVYRGMDIGTAKITAEEMDGVPHHLIDIKDPSESFSVADFQDLATPLITEIHERGRLPFLVGGTGLYVNAVIHQFNLGDIRADEDYRHELEAFVNSYGVQALHDKLSKIDPKAAAAIHPNNYRRVIRALEIIKLTGKTVTEQARHEEETPSPYNLVMIGLTMERDVLYDRINRRVDQMVEEGLIDEAKKLYDRGIRDCQSVQAIGYKEMYDYLDGNVTLEEAIDTLKRNSRRYAKRQLTWFRNKANVTWFDMTDVDFDKKIMEIHNFIAGKLEEKSK
stoichiometry N: 2
